B1: BBSome complex member BBS5 (Homo sapiens), Q8N3I7 (parent)
chain: MSVLDALWEDRDVRFDLSAQQMKTRPGEVLIDCLDSIEDTKGNNGDRGRLLVTNLRILWHSLALSRVNVSVGYNCILNITTRTANSKLRGQTEALYILTKCNSTRFEFIFTNLVPGSPRLFTSVMAVHRAYETSKMYRDFKLRSALIQNKQLRLLPQEHVYDKINGVWNLSSDQGNLGTFFITNVRIVWHANMNDSFNVSIPYLQIRSIKIRDSKFGLALVIESSQQSGGYVLGFKIDPVEKLQESVKEINSLHKVYSASPIFGVDYEMEEKPQPLEALTVEQIQDDVEIDSDGHTDAFVAYFADGNKQQDREPVFSEELGLAIEKLKDGFTLQGLWEVMS
partner: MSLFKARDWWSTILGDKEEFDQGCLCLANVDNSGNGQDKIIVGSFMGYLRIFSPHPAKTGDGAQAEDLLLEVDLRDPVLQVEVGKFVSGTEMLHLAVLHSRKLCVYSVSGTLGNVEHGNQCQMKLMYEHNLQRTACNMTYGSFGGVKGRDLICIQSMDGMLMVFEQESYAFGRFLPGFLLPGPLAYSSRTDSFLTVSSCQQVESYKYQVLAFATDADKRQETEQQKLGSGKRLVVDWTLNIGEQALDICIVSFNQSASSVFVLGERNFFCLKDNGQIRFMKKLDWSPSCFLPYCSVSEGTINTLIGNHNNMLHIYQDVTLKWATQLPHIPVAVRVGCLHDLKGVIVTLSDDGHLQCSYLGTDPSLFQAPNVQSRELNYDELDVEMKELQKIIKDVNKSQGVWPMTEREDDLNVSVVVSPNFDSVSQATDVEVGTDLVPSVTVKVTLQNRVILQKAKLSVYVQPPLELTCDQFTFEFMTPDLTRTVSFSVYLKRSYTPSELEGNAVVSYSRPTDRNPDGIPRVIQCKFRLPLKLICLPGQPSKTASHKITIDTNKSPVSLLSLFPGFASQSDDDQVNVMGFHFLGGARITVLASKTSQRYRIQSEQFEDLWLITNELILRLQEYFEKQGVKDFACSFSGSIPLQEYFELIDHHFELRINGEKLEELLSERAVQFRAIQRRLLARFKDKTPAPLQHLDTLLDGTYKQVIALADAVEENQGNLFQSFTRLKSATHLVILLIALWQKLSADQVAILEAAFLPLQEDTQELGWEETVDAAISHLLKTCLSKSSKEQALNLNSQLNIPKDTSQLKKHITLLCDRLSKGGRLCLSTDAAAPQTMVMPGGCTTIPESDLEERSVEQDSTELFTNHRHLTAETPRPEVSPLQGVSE

Variants of B1 are the subject of the test. The conditions noted are these: with pthb1_human BBS9, Q3SYG4.
On to V52E, for which the “effect of a mutation on the interaction” value is “with no effect”. V52K: the “effect of a mutation on the interaction” value is on record as “disrupting interaction strength”. Take D291E: the “effect of a mutation on the interaction” value was “with no effect”. Consider D266K, for which the “effect of a mutation on the interaction” value is recorded as “with no effect”. Take L276A: the “effect of a mutation on the interaction” value is reported as “with no effect”.

For the variant L276E, the “effect of a mutation on the interaction” value is reported as “with no effect”.

With I187A, the “effect of a mutation on the interaction” value was “with no effect”. As for I76E, the “effect of a mutation on the interaction” value is reported as “disrupting interaction strength”. With F331A the entry was “with no effect”.

F331E: the “effect of a mutation on the interaction” value is listed as “disrupting interaction strength”. Regarding V114A, the “effect of a mutation on the interaction” value is “with no effect”. As for F235E, the “effect of a mutation on the interaction” value is on record as “with no effect”. Turning to R47A, the “effect of a mutation on the interaction” value is listed as “with no effect”. Take S171A: the “effect of a mutation on the interaction” value is listed as “with no effect”. For S292E, the “effect of a mutation on the interaction” value was “with no effect”. Turning to S246A, the “effect of a mutation on the interaction” value was “with no effect”.

K326A: the “effect of a mutation on the interaction” value is listed as “with no effect”. For F181E, the “effect of a mutation on the interaction” value is “with no effect”. For F181A, the “effect of a mutation on the interaction” value is reported as “with no effect”. Turning to Y267A, the “effect of a mutation on the interaction” value is on record as “with no effect”. In the case of F216A, the “effect of a mutation on the interaction” value is recorded as “with no effect”. Q227K: the “effect of a mutation on the interaction” value is recorded as “with no effect”. In the case of V3K it was “with no effect”; in that of L113K, “with no effect”.

For the variant V339K, the “effect of a mutation on the interaction” value was “with no effect”. Turning to C33A, the “effect of a mutation on the interaction” value was “with no effect”. On to R105E, for which the “effect of a mutation on the interaction” value is “with no effect”. Take D139A: the “effect of a mutation on the interaction” value is reported as “with no effect”.

For the variant N54E, the “effect of a mutation on the interaction” value is given as “disrupting interaction strength”. Take E9K: the “effect of a mutation on the interaction” value is “with no effect”. As to E9A, the “effect of a mutation on the interaction” value was “with no effect”. Consider R25E, for which the “effect of a mutation on the interaction” value was “disrupting interaction strength”. Take P26A: the “effect of a mutation on the interaction” value is on record as “with no effect”. Regarding E223A, the “effect of a mutation on the interaction” value is on record as “with no effect”.

In the case of N74A, the “effect of a mutation on the interaction” value is recorded as “with no effect”. S172K: the “effect of a mutation on the interaction” value is “with no effect”. Regarding K210E, the “effect of a mutation on the interaction” value is “with no effect”. In the case of T83E it was “with no effect”.

On to Q205E, for which the “effect of a mutation on the interaction” value is on record as “with no effect”. For Q205K, the “effect of a mutation on the interaction” value is “with no effect”.

On to T104A, for which the “effect of a mutation on the interaction” value is recorded as “with no effect”. Take W189A: the “effect of a mutation on the interaction” value is “with no effect”. As for L142E, the “effect of a mutation on the interaction” value was “with no effect”. As to V281E, the “effect of a mutation on the interaction” value was “with no effect”.

With Y96E, the “effect of a mutation on the interaction” value is on record as “with no effect”. For the variant A130E, the “effect of a mutation on the interaction” value is “with no effect”. With F316K, the “effect of a mutation on the interaction” value is given as “with no effect”. Take Q226E: the “effect of a mutation on the interaction” value is given as “with no effect”. I31K: the “effect of a mutation on the interaction” value is “with no effect”. With E270A, the “effect of a mutation on the interaction” value was “with no effect”. Regarding E93K, the “effect of a mutation on the interaction” value is given as “with no effect”. With G178A the entry was “with no effect”. Take P202K: the “effect of a mutation on the interaction” value is on record as “with no effect”. For the variant W8A, the “effect of a mutation on the interaction” value is given as “with no effect”. As for W8K, the “effect of a mutation on the interaction” value is on record as “with no effect”. In the case of S258K it was “with no effect”. On to I147A, for which the “effect of a mutation on the interaction” value is given as “with no effect”.

For the variant I147K, the “effect of a mutation on the interaction” value was “with no effect”.

For the variant S123K, the “effect of a mutation on the interaction” value is on record as “with no effect”. Consider G116E, for which the “effect of a mutation on the interaction” value was “with no effect”.

For G335E, the “effect of a mutation on the interaction” value is recorded as “with no effect”. In the case of Y161A, the “effect of a mutation on the interaction” value was “with no effect”. Take Y161K: the “effect of a mutation on the interaction” value is reported as “with no effect”. In the case of E313A it was “with no effect”; in that of L170A, “with no effect”. For the variant T133E, the “effect of a mutation on the interaction” value is listed as “with no effect”. In the case of N112K, the “effect of a mutation on the interaction” value was “with no effect”. On to G90E, for which the “effect of a mutation on the interaction” value is “with no effect”. On to I211E, for which the “effect of a mutation on the interaction” value is listed as “with no effect”.

Turning to L88E, the “effect of a mutation on the interaction” value was “with no effect”.

Regarding F299K, the “effect of a mutation on the interaction” value is on record as “with no effect”.

Consider R11W, for which the “effect of a mutation on the interaction” value is listed as “disrupting interaction strength”.

Consider G294E, for which the “effect of a mutation on the interaction” value is on record as “with no effect”.

Regarding I37A, the “effect of a mutation on the interaction” value is given as “with no effect”. Regarding R153A, the “effect of a mutation on the interaction” value was “with no effect”.

Turning to L336E, the “effect of a mutation on the interaction” value is given as “with no effect”.

With L336A, the “effect of a mutation on the interaction” value is on record as “with no effect”. Regarding L155A, the “effect of a mutation on the interaction” value is listed as “with no effect”. For L155E, the “effect of a mutation on the interaction” value was “with no effect”. In the case of G330E it was “with no effect”; in that of G330K, “with no effect”. On to L30E, for which the “effect of a mutation on the interaction” value is listed as “with no effect”. Take F121A: the “effect of a mutation on the interaction” value was “with no effect”. With T99A, the “effect of a mutation on the interaction” value was “with no effect”. Regarding T99E, the “effect of a mutation on the interaction” value was “disrupting interaction strength”. For V185A, the “effect of a mutation on the interaction” value was “with no effect”. In the case of Q151E it was “with no effect”. As for Q151K, the “effect of a mutation on the interaction” value was “with no effect”. With H159E the entry was “with no effect”. In the case of D32A it was “with no effect”; in that of D32G, “disrupting interaction strength”.
